The values that follow are results of earlier work, collected in publication PMC5250575.

The term Kd denotes the free concentration of one partner at which half of the binding sites on the other are occupied at equilibrium, for simple one-to-one binding.

In this data set the target is Kv1.3 (Homo sapiens) (UniProt P22001).
Sequence of UniProt P22001 (P22001 whole entry): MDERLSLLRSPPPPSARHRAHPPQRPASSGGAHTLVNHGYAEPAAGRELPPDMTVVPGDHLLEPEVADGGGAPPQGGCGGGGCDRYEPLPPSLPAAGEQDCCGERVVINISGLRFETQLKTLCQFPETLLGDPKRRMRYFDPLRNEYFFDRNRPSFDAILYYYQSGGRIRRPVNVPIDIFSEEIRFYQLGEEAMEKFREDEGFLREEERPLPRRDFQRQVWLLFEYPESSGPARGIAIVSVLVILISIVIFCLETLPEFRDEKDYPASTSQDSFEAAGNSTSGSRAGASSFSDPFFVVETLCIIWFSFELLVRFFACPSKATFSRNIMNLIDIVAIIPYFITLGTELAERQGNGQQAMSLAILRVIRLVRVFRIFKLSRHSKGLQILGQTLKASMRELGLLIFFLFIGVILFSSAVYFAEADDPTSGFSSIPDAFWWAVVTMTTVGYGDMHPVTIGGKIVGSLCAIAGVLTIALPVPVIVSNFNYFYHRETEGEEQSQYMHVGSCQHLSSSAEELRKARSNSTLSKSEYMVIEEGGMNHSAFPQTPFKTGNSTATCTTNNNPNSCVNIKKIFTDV

As to Margatoxin (from UniProt P40755), the Kd was 11.7 pM.
